Measurements published in patent US20220133849A1.

Target: Maxi-K channel of rat bladder detrusor smooth muscle (endogenous) (rat) (UniProt Q62976)
Test: cell-based or functional assay

UniProt Q62976, sequence (Q62976 whole entry): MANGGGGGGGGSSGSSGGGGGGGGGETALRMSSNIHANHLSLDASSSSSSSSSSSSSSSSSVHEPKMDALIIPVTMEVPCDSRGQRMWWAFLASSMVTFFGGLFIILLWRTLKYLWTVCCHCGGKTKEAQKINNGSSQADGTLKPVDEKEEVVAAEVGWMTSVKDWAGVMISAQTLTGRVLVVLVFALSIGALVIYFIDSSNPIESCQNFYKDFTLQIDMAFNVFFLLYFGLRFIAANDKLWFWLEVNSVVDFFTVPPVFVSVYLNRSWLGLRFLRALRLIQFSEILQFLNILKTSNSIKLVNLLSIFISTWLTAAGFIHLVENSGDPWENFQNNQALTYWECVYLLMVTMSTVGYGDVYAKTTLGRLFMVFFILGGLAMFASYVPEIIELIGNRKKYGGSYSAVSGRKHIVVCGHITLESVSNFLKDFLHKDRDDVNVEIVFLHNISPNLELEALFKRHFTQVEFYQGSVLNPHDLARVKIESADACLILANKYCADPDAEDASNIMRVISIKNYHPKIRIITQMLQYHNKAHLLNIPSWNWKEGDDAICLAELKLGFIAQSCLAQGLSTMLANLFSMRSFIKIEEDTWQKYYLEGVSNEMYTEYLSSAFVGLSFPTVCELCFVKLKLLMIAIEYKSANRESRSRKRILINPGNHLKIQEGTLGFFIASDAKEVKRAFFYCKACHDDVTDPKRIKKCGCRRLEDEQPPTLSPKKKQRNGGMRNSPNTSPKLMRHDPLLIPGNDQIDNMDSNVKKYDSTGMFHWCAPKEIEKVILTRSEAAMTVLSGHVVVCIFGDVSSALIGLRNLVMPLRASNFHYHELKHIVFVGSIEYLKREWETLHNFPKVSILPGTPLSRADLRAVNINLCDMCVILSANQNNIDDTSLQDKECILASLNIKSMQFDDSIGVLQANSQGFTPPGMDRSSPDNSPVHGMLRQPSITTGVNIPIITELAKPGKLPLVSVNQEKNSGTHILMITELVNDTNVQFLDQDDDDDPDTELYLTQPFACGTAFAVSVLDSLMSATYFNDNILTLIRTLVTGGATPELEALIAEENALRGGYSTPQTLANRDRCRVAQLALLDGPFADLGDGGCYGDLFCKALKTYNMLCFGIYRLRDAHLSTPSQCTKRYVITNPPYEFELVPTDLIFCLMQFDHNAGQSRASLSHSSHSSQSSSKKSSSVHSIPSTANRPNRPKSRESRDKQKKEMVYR

In the case of “iberiotoxin (from UniProt P24663 1-37) (peptide)”, the outward current in response to applied voltage, single whole-cell patch clamp of isolated rat detrusor cells, 300 nM IBTX is reported as greater than 50%.
